Test results as given in paper PMC6317713.

What was measured:
Assay in all cases: two-hybrid
[1] = molecular target: PRO0 (DIG10.3 Y34F, Y99F, Y101F), progesterone ligand-binding domain
[2] = molecular target: DIG10.3 monomer (DIG0), computationally designed digoxigenin-binding protein
[3] = molecular target: DIG1b (DIG10.3 E83R), charge swap design
[4] = molecular target: DIG2b (DIG10.3 I102A), knob-in-hole design

DIG1 (DIG10.3 E83V) (designed binder) gave a fold luciferase activity with both ligands over either ligand alone [1] of 20 fold and a fold activation of the luciferase reporter with digoxigenin [2] of 400 fold.
“DIG1a (DIG10.3 R116E), charge swap design (designed binder)” was tested, and the fold increase in reporter activation with digoxigenin [3] was greater than 500 fold.
Work on “DIG2a (DIG10.3 I102M, V104F), knob-in-hole design (designed binder)” yielded a fold increase in reporter activation with digoxigenin [4] greater than 500 fold.
With “DIG10.3 monomer (DIG0), computationally designed digoxigenin-binding protein (designed binder)” the fold increase in luciferase activity with 50 uM digoxigenin [2] was 20 fold.
Substance “PRO0 (DIG10.3 Y34F, Y99F, Y101F), progesterone ligand-binding domain (designed binder)” has a fold increase in reporter activity with 1 uM progesterone [1] of 200 fold.
